{
  "source": "patent US6429014B1",
  "about": "“Monoterpene synthases from grand fir (Abies grandis)” (Washington State University Research Foundation, priority 1997, dated 2002)",
  "key": {"[1]": {"test": "Terpene synthase assay and GC-MS / chiral GC product identification of recombinant enzymes expressed from pSBET in E. coli BL21(DE3) (Example 11)", "assay_type": "biochemical", "conditions": "extracts of induced cells", "description": "For functional expression, bacterial strains E. coli BL21(DE3)/pSAG2(M), E. coli BL21(DE3)/pSAG2(R), E. coli BL21(DE3)/pSAG3(R), E. coli BL21(DE3)/pSAG6(M), E. coli BL21(DE3/pSAG6(R), E. coli BL21(DE3)/pSAG8(M), E. coli BL21(DE3)/pSAG9(M), E. coli BL21(DE3)/pSAG11(M) and E. coli BL21(DE3)/SAG11(R) were grown to A600=0.5 at 37° C. in 5 ml of Luria-Bertani medium (Sambrook, J., Fritsch, E. F., and Maniatis, T. (1989) Molecular Cloning: A Laboratory Manual, 2nd Ed., pp. 7.20-7.43, Cold Spring Harbor, N.Y.) supplemented with 30 μg kanamycin/ml. Cultures were then induced by addition of 1 mM isopropyl-1-thio-β-D-galactopyranoside and grown for another 12 h at 20° C. Cells were harvested by centrifugation and disrupted by sonication followed by centrifugation, and the resulting soluble enzyme preparations were assayed for monoterpene, sesquiterpene and diterpene synthase activity using the appropriate radiolabeled substrate as described previously (Bohlmann, J., Steele, C. L., and Croteau, R. (1997) J. Biol. Chem. 272, 21784-21792). This assay involves the isolation and separation of terpene olefins and oxygenated terpenes by column chromatography on silica, followed by scintillation counting to determine conversion rate. GC-MS analysis is employed for product identification, by comparison of retention times and mass spectra to those of authentic standards (Bohlmann, J., Steele, C. L., and Croteau, R. (1997) J. Biol Chem. 272, 21784-21792); assignment of absolute configuration is based upon chiral column capillary GC and matching of retention time to that of the corresponding enantiomer (Lewinsohn, E., Savage, T. J., Gijzen, M., and Croteau, R. (1993) Phytochem. Anal. 4, 220-225). To insure production of sufficient material for identification, the standard assay (Bohlmann, J., Steele, C. L., and Croteau, R. (1997) J. Biol. Chem. 272, 21784-21792) was scaled up by a factor of 20.\nInitially, the four pSBET plasmids pSAG6(M), pSAG8(M), pSAG9(M) and pSAG11(M), containing the full-length cDNA inserts of ag6 (SEQ ID NO:64), ag8 (SEQ ID NO:66), ag9 (SEQ ID NO:77) and ag11 (SEQ ID NO:68), respectively, were expressed in E. coli BL21(DE3). Extracts of the induced, transformed bacterial cells were assayed for monoterpene, sesquiterpene and diterpene synthase activity using the corresponding labeled C10, C15 and C20 prenyl diphosphate substrates (Bohlmann, J., Steele, C. L., and Croteau, R. (1997) J. Biol. Chem. 272, 21784-21792). […] Since it is known that the relatively large amino-terminal transit peptide of plant terpene synthases can impair expression of the functional preprotein in E. coli and promote the formation of intractable inclusion bodies (Williams, D. C., McGarvey, D. J., Katahira, E. J., and Croteau, R. (1998) Biochemisiry 37, 12213-12220), the“pseudomature” forms of ag6 (SEQ ID NO:64) and ag11 (SEQ ID NO:68) were prepared by truncation of the cDNAs to insert a starting methionine immediately upstream of their tandem arginine elements (R59R 60 for ag6 (SEQ ID NO:64), R^71R^72 for ag11 (SEQ ID NO:68)) for expression in E. coli BL21(DE3)/pSAG6(R) and E. coli BL21(DE3)/pSAG11(R). Similar truncations of previously characterized ag2.2 (SEQ ID NO:1) (myrcene synthase, R^64R^65) and ag3.18 (SEQ ID NO:3) ((−)-pinene synthase, (SEQ ID NO:5) R^64R^65) (Bohlmann, J., Steele, C. L., and Croteau, R. (1997) J. Biol. Chem. 272, 21784-21792) were prepared for expression from pSBET as controls for the possible alteration of product yield and distribution resulting from truncation.\nMonoterpenes generated at preparative scale from geranyl diphosphate by the recombinant enzymes encoded by ag6 (SEQ ID NO:64), ag8 (SEQ ID NO:66), ag9 (SEQ ID NO:77) and ag11 (SEQ ID NO:68) were analyzed by GC-MS and chiral phase (β-cyclodextrin) capillary GC, and identified by comparison of retention times and mass spectra to authentic standards (FIGS. 6-9). […] The enzyme encoded by ag6 (SEQ ID NO:65) is therefore designated as (−)-1S,4R-camphene synthase. […]"}, "[2]": {"conditions": "Bohlmann et al. 1997; cited from earlier work"}},
  "data": [
    {"molecule": "AG3.18: recombinant (−)-pinene synthase from Grand fir encoded by cDNA clone AG3.18 (SEQ ID NO:3; protein SEQ ID NO:4) (protein, listed as Abies grandis) MALVSTAPLASKSCLHKSLISSTHELKALSRTIPALGMSRRGKSITPSISMSSTTVVTDDGVRRRMGDFHSNLWDDDVIQSLPTAYEEKSYLERAEKLIGEVKNMFNSMSLEDGELMSPLNDLIQRLWIVDSLERLGIHRHFKDEIKSALDYVYSYWGENGIGCGRESVVTDLNSTALGLRTLRLHGYPVSSDVFKAFKGQNGQFSCSENIQTDEEIRGVLNLFRASLIAFPGEKIMDEAEIFSTKYLKEALQKIPVSSLSREIGDVLEYGWHTYLPRLEARNYIQVFGQDTENTKSYVKSKKLLELAKLEFNIFQSLQKRELESLVRWWKESGFPEMTFCRHRHVEYYTLASCIAFEPQHSGFRLGFAKTCHLITVLDDMYDTFGTVDELELFTATMKRWDPSSIDCLPEYMKGVYIAVYDTVNEMAREAEEAQGRDTLTYAREAWEAYIDSYMQEARWIATGYLPSFDEYYENGKVSCGHRISALQPILTMDIPFPDHILKEVDFPSKLNDLACAILRLRGDTRCYKADRARGEEASSISCYMKDNPGVSEEDALDHINAMISDVIKGLNWELLKPDINVPISAKKHAFDIARAFHYGYKYRDGYSVANVETKSLVTRTLLESVPL", "values": [
      {"measurement": "terpene synthase activity on expression from pSBET in E. coli BL21(DE3)", "setting": "[1]", "result": "high level expression of activity"},
      {"measurement": "(−)-enantiomer share of the α-pinene formed", "setting": "[2]", "result": "more than 99%"}
    ]}
  ]
}
